# From article PMC4333404, “Bcl2 inhibits recruitment of Mre11 complex to DNA double-strand breaks in response to high-linear energy transfer radiation”
# T1: Mre11 (UniProt P49959 1-708)
# T1 sequence: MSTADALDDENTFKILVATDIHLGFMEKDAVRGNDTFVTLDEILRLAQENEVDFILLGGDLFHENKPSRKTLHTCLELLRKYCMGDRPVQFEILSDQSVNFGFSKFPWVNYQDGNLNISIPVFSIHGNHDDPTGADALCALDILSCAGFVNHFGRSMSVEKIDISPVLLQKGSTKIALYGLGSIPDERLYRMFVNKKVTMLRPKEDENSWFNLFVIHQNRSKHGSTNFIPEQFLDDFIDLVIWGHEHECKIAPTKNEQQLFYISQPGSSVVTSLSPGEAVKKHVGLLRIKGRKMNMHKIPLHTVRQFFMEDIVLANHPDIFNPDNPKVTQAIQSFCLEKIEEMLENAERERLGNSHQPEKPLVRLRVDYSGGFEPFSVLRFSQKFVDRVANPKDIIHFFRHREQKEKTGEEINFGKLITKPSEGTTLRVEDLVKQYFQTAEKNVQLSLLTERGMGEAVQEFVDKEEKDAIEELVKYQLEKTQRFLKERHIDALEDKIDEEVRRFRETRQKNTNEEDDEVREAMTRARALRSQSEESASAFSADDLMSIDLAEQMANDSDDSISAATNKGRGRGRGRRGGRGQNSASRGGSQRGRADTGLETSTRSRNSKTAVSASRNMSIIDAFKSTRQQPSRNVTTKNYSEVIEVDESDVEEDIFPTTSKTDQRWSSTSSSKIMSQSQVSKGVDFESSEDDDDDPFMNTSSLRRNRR
# B1: TP423/TP424 3' overhanging duplex (dsDNA)
# DNA 1: CTGCAGGGTTTTTGTTCCAGTCTGTAGCACTGTGTAAGACAGGCCAGATC
# DNA 2: CACAGTGCTACAGACTGGAACAAAAACCCTGCAGTACTCTACTCATCTC
# Target: T1, Mre11
# Test: EMSA; increasing Mre11; 1 mM Mg acetate; no Bcl2; EMSA: 25 mM MOPS pH 7.0, 60 mM KCl, 0.2% Tween, 2 mM DTT, 1 mM Mg(CH3COO)2, 37 C 15 min; 10 pM DNA, 10 nM Mre11; 5% native PAGE in TBE at 4 C
# Details: protein: recombinant; tags: Flag; chain copies: 2; label: 5'-32P on TP423; 34 bp duplex (S3[1-34] with S4[1-34]); 3' overhangs 16 nt (TP423) and 15 nt (TP424)
binder,measurement,value
B1,binding result,binds
